Results as given in patent US20110159022A1, “Immunogenic Peptides Derived from the Midkine Protein, as an Anticancer Vaccine” (priority 2008, published 2011).
Residue numbers refer to the chain shown, from its start.

Assays:
HLA-DP402 (DPB1*0402) = biological target: T1, HLA-DP402 (DPB1*0402) (Homo sapiens, UniProt P04440+P20036, A65V/A84D/A85E/L207M); type: binding; details: ratio of IC50 of competitor peptide to IC50 of reference peptide; mean of at least two independent experiments; less than 100 = active
T1 sequence (P04440 30-258 A65V/A84D/A85E): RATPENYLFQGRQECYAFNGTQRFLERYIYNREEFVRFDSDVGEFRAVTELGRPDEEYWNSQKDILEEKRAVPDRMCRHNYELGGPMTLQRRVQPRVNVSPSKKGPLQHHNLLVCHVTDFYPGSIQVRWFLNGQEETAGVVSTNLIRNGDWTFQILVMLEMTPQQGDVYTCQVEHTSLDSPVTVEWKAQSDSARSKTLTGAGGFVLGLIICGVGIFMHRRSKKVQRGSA
T1 sequence (P20036 29-260): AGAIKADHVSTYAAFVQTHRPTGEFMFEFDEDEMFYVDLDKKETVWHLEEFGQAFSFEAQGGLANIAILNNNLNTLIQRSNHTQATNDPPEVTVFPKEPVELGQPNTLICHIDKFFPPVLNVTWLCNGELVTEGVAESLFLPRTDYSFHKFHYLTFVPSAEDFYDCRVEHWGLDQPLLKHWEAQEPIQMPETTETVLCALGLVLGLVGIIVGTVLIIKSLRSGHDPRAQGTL

HLA-DR3 (DRB1*0301) = HLA-DR3 (DRB1*0301) (Homo sapiens, UniProt P01903+P01911, A100K/A102G/A103R/A169T/F55Y/I96L/K41T/L162R/M171V/P40S/Q125H/Q178H/Q39Y/R42S/S66N/T106N/T262R/W38E/Y61H); assay: HLA II/peptide competition binding assay, DR3; details: ratio of IC50 of competitor peptide to IC50 of reference peptide; mean of at least two independent experiments; less than 100 = active
HLA-DR15 (DRB1*1501) = HLA-DR15 (DRB1*1501) (Homo sapiens, UniProt P01903+P01911); assay: HLA II/peptide competition binding assay, DR15; details: ratio of IC50 of competitor peptide to IC50 of reference peptide; mean of at least two independent experiments; less than 100 = active
HLA-DR4 (DRB1*0401) = HLA-DR4 (DRB1*0401) (Homo sapiens, UniProt P01903+P01911, A100K/A169T/F76Y/I96L/K127E/L162R/M171V/N62H/P40V/Q125Y/R42H/S133A/S149N/S66Y/V115G/V209L/W38E); assay: HLA II/peptide competition binding assay, DR4; details: ratio of IC50 of competitor peptide to IC50 of reference peptide; mean of at least two independent experiments; less than 100 = active
HLA-DRB3 (DRB3*0101) = HLA-DRB3 (DRB3*0101) (Homo sapiens, UniProt P01903+P79483); assay: HLA II/peptide competition binding assay, DRB3; details: ratio of IC50 of competitor peptide to IC50 of reference peptide; mean of at least two independent experiments; less than 100 = active
HLA-DP401 (DPB1*0401) = biological target: T2, HLA-DP401 (DPB1*0401) (Homo sapiens, UniProt P04440+P20036); type: binding; details: ratio of IC50 of competitor peptide to IC50 of reference peptide; mean of at least two independent experiments; less than 100 = active
T2 sequence (P04440 30-258): T1 sequence (P04440 30-258 A65V/A84D/A85E) with V36A, D55A, E56A
T2 sequence (P20036 29-260): T1 sequence (P20036 29-260)

HLA-DRB4 (DRB4*0101) = HLA-DRB4 (DRB4*0101) (Homo sapiens, UniProt P01903+P13762, G164S); assay: HLA II/peptide competition binding assay, DRB4; details: ratio of IC50 of competitor peptide to IC50 of reference peptide; mean of at least two independent experiments; less than 100 = active
HLA-DR13 (DRB1*1301) = HLA-DR13 (DRB1*1301) (Homo sapiens, UniProt P01903+P01911, A100E/A169T/K41T/L162R/M171V/P40S/Q125H/Q178H/Q39Y/Q99D/R42S/S66N/T262R/W38E/Y61H); assay: HLA II/peptide competition binding assay, DR13; details: ratio of IC50 of competitor peptide to IC50 of reference peptide; mean of at least two independent experiments; less than 100 = active
[1] = system: 12 predominant HLA II molecules; assay: HLA II/peptide binding assays, count over the panel; design: species or system human; details: relative activity of less than 100 characterizes the active peptides
Source text: The assays for binding to HLA II molecules are competition binding assays with immunoenzymatic visualization, as described in U.S. Pat. No. 6,649,166 and PCT international application WO 03/040299, respectively, for the HLA-DR and HLA-DP4 molecules. The implementation of these assays for measuring the binding activity of peptides derived from various antigens is illustrated in U.S. Pat. No. 6,649,166 and PCT international applications WO 02/090382, WO 03/040299 and WO 2004/014936.
The sensitivity of each test is reflected by the IC50 values observed with the nonbiotinylated peptides which correspond to the tracers. […] The results are expressed in the form of relative activity (ratio of the IC50 of the competitor peptide to that of the reference peptide (nonbiotinylated peptide which corresponds to the tracer)). A relative activity of less than 100 characterizes the active peptides.

[2] = system: CD8^+ T lymphocytes of healthy individuals possessing the HLA-A2 molecule; assay: In vitro induction of peptide-specific CD8+ T lymphocyte lines, IFN-γ Elispot; type: cell-based, human; details: for Ability to induce an in vitro CD8+ T lymphocyte response: cells from healthy HLA-A2 individuals, 4 weeks of culture
Protocol: The PBMCs were then cultured in AIM V medium (Life Technologies) and incubated overnight at 37° C. in the presence of 5% CO2/95% air. The CD8^+ T lymphocytes were purified from the nonadherent cells by immunomagnetic sorting, and frozen. The adherent cells were differentiated into immature dendritic cells by culturing for 5 days in AIM V medium containing 1000 U/ml of GM-CSF and 1000 U/ml of IL-4, and then into mature dendritic cells by culturing for 2 days in the presence of 1 μg/ml of LPS, 1000 U/ml of IL-4 and 1000 U/ml of GM-CSF. The mature dendritic cells were incubated in the presence of 5 μg/ml of beta-2-microglobulin and 10 μg/ml of each of the peptides of table IV. After 4 hours, the cells were washed and then placed in culture in 96-well plates, in the presence of purified CD8 T lymphocytes in IMDM medium containing 10% of group AB human serum, IL-6 (1000 U/ml) and IL-12 (5 ng/ml). Each week, the culture was restimulated with autologous mature dendritic cells loaded with the peptide mixture mentioned above, in medium containing 20 U/ml of IL-2 and 10 ng/ml of IL-7. After 4 weeks of culture, the specificity of the T cell lines contained in each well was tested by IFN-γ Elispot.
Anti-IFN-γ antibodies (1-D1K, Mabtech) diluted to 2.5 μg/ml in PBS buffer were adsorbed onto nitrocellulose plates (Millipore) for 1 hour at 37° C. The plates were then washed with PBS and then saturated with Iscove medium containing 10% of group AB human serum (100 μg/well), for 2 h at 37° C.
In order to verify the specificity of the lines with respect to the HLA-A2 molecule, the C1R cells transfected with HLA-A2 (30 000 cells/well) and 5000 test lymphocytes were then added to the plates and incubated for 24 h at 37° C., in the presence or absence of a single peptide (10 μg of peptide) or of a mixture of peptides (10 μg of each peptide). For the dose-response analyses, the peptides are used at various concentrations ranging from 0.001 to 10 μg/ml.
After three successive washes with water, PBS buffer/0.05% Tween and PBS alone, 100 μl of biotinylated anti-IFN-γ secondary antibody (7-B6-1-biotin, Mabtech), diluted to 0.25 μg/ml in PBS containing 1% BSA, were added to each well. After one hour of incubation at ambient temperature, the plates were washed again and then incubated for one hour at ambient temperature with 100 μg/well of Extravidin-AKP (E-2636, Sigma), diluted to 1/6000. After washing of the plates in PBS buffer, 100 μl of NBT/BCIP substrate B-5655, Sigma), diluted in water (1 tablet in 10 ml of water), were distributed in each well. The immunoenzymatic visualization was stopped after approximately 10 minutes, by thorough rinsing of the plates in water. After drying of the plates, the colored spots were counted using an automatic reader (AID). The lines are considered to be positive when the number of spots is more than three times that obtained with the negative control (control without peptides) with a minimum of 50 spots. The control without presenting cells makes it possible to verify the specificity of the response for HLA-A2 (restriction control).

## E T I R V T K P C T P K T K A (ETIRVTKPCTPKTKA) [MDK 119-133]
HLA-DP402 (DPB1*0402)
  Relative binding activity, DP402: >976
HLA-DR3 (DRB1*0301)
  Relative binding activity, DR3: >419
HLA-DR15 (DRB1*1501)
  Relative binding activity, DR15: >529
HLA-DR4 (DRB1*0401)
  Relative binding activity, DR4: 1 289
HLA-DRB3 (DRB3*0101)
  Relative binding activity, DRB3: >485
HLA-DP401 (DPB1*0401)
  Relative binding activity, DP401: >879
HLA-DRB4 (DRB4*0101)
  Relative binding activity, DRB4: >28 868
HLA-DR13 (DRB1*1301)
  Relative binding activity, DR13: >2 537

## L L A L T S A V A K K K D K V (LLALTSAVAKKKDKV; MDK 14-28 peptide)
HLA-DP402 (DPB1*0402)
  Relative binding activity, DP402: >976
HLA-DR3 (DRB1*0301)
  Relative binding activity, DR3: >419
HLA-DR15 (DRB1*1501)
  Relative binding activity, DR15: >529
HLA-DRB3 (DRB3*0101)
  Relative binding activity, DRB3: >485
HLA-DP401 (DPB1*0401)
  Relative binding activity, DP401: >879
HLA-DRB4 (DRB4*0101)
  Relative binding activity, DRB4: >28 868
[1]
  Total (number of the 12 predominant HLA II molecules bound): 4
[1]; listed as 14-28
  Total (number of the 12 predominant HLA II molecules bound): several

## LALLALTSAV (MDK 12-21 peptide)
[2]; FIG. 2
  Peptide specificity of CD8+ T lymphocyte line 267.29A: specific
[2]
  Ability to induce an in vitro CD8+ T lymphocyte response: induced CD8^+ T lymphocytes

## LLALTSAVA (MDK 14-22 peptide)
[2]; FIG. 2
  Peptide specificity of CD8+ T lymphocyte line 278.11A: specific
[2]
  Ability to induce an in vitro CD8+ T lymphocyte response: induced CD8^+ T lymphocytes

## M Q H R G F L L L T L L A L L (MQHRGFLLLTLLALL; MDK 1-15 peptide)
HLA-DR3 (DRB1*0301)
  Relative binding activity, DR3: >419
HLA-DR15 (DRB1*1501)
  Relative binding activity, DR15: 211
HLA-DR4 (DRB1*0401)
  Relative binding activity, DR4: 226
[1]
  Total (number of the 12 predominant HLA II molecules bound): 5
[1]; listed as 1-15
  Total (number of the 12 predominant HLA II molecules bound): several
HLA-DR13 (DRB1*1301)
  Relative binding activity, DR13: >2 537

## NAQCQETIRV (MDK 113-122 peptide)
[2]
  Ability to induce an in vitro CD8+ T lymphocyte response: induced CD8^+ T lymphocytes

## R G F L L L T L L A L L A L T (RGFLLLTLLALLALT; MDK 4-18 peptide)
HLA-DR3 (DRB1*0301)
  Relative binding activity, DR3: >419
HLA-DR4 (DRB1*0401)
  Relative binding activity, DR4: 136
[1]
  Total (number of the 12 predominant HLA II molecules bound): 9
[1]; listed as 4-18
  Total (number of the 12 predominant HLA II molecules bound): several
HLA-DR13 (DRB1*1301)
  Relative binding activity, DR13: >2 537
